Assay results reported in the supplement of paper PMC9170038.

Tests used:
MS2 coat protein [1] = experiment: apparent KD of MS2 coat protein, switch OFF state (with FMN for OFF switches, without FMN for ON switches); designed switch direction (-1 OFF switch, 1 ON switch): 1; higher = weaker reporter binding; conditions: FMN input: 0 or 200 uM; Eterna round: R93 (includes R88 designs)
Summary of the method: (§1)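 Titration buffer: 100 mM Tris-HCl pH 7.5, 80 mM KCl, 4 mM MgCl2, without or with constant ligand. Designed RNA switches transcribed on-chip from Illumina sequencing clusters received SNAP-549-labelled MS2 coat protein in twofold steps from 0.7 or 1.5 nM to 3 µM. Apparent KD is the median per design of fits to normalised cluster binding curves.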

MS2 coat protein [2] = experiment: apparent KD of MS2 coat protein, switch ON state; designed switch direction (-1 OFF switch, 1 ON switch): 1; higher = weaker reporter binding; conditions: FMN input: 0 or 200 uM; Eterna round: R93 (includes R88 designs)
Summary of the method: as §1

| Sequence | apparent KD of MS2 coat protein (MS2 coat protein [1]) | apparent KD of MS2 coat protein (MS2 coat protein [2]) |
| --- | --- | --- |
| AACAAUCUAUCUGAGGAUAUCAUGUAAAAAACAUGAGGAUCACCCAUGUGCAGGAAAACUGCAUAUGAGAAGGCAGAUAGAUUGA [SS2 :P - 600] | 0.192 µM | 0.0981 µM |
| AUAAAGAAAAGGCAGGAUAUGUAAACUAAAACAUGAGGAUCACCCAUGUGGGAAAUAAAAUAAAAACAGAAGGGCCAAAAGAAUA [Designing denovo 17] | 0.0328 µM | 0.0191 µM |
| AACAAUCUAUCUGAGGAUAUAUGUCGAAAGACAUGAGGAUCACCCAUGUGAAAACAUGAAAAAUAAUAGAAGGCAGAUAGAUUGA [SS2: 1141] | 0.413 µM | 0.0805 µM |
| GGCCAACAUGAGGAUCACCCAUGUCGCCAAAAUCGAGGAUAUGGGUGCCAGCUCGGGCAGCCAGAAGGCGACAAAA [Qutiqumais] | 0.224 µM | 0.0551 µM |
| GAAAAACAUGAGGAUCACCCAUGUAGAGAUAUGGGAGGAUAUACGAAGACGAAAGACGAUGUAGAAGGCCUAAAAG [Garnet 59] | 0.234 µM | 0.0804 µM |
| GGGACCAGCGUCAAGGAUAUUCAUAUAUAAACAUGAGGAUCACCCAUGUAGGCCAGGAGGCCUUGGGAGAAGGUGAGUUGGCUCG [Xegedibe] | 0.249 µM | 0.0405 µM |
| CUGGACAUAGUAUAGGAUAUAUGAAUAAUUACAUGAGGAUCACCCAUGUCCAUUUAUAUGGGAACAUAGAAGGGUGGUAGUUAAG [Mat - Same state - Malcolm Mod - D142] | 0.0976 µM | 0.147 µM |
| AAAAAACAUGAGGAUCACCCAUGUAGAAACAUGGGAGGAUAUACAAAGACGAAAGUCAAAGUAGAAGGCCUAAAAA [Mat - Same State 1 - Mod - D157] | 0.0335 µM | 0.0777 µM |
| AAUAUACAUGAGGAUCACCCAUGUUAGGUGGGACUAGGAUAUCAAAAUAAAUAAAGAACAUGAGAAGGAGUAUCAA [JR_SS001_Sub401] | 0.152 µM | 0.0945 µM |
| GAAAAACAUGAGGAUCACCCAUGUGUAAAUAUGGAAGGAUAUACAAAGACGUAAGUCAAAGUAGAAGGUCUAAAAG [Mat - Same State 1 - Eli mod - D17] | 0.0235 µM | 0.0188 µM |
| AGGAAACAUGAGGAUCACCCAUGUAUAAAAAUGGGAGGAUAUACAAAGACGAAAGUCAAAGUAGAAGGCCUAAAAA [76%, Meechl, 7] | 0.0515 µM | 0.0188 µM |
| AGGAGACAUGAGGAUCACCCAUGUGAGAAGAGGCGAGGAUAUCGAAAGAAAGAAGAGAAACGAGAAGGCGCGAGCA [salish99-SS1-020] | 0.0371 µM | 0.0197 µM |
| UGAAAACAUGAGGAUCACCCAUGUAGAAAUAUGGGAGGAUAUACGAAGACGAAAGUCAAAGUAGAAGGCCUAAAUG [Mat - Same State 1 - Eli mod - D110] | 0.0721 µM | 0.0276 µM |
| AUAAUAUUAAGCAAGGAUAUACUAAAGUAAACAUGAGGAUCACCCAUGUAAAAAAAAAAACUCAUGUAGAAGGUGCAUAAAUAAA [moonwalk 10] | 0.0331 µM | 0.00892 µM |
| GCAAAACAUGAGGAUCACCCAUGUCAACAAAAUCAAGGAUAUGAGCCAGCAAUGCCGGCAUCAGAAGGUGAACCUU [Enqule] | 0.0685 µM | 0.0532 µM |
| AAAACACAUGAGGAUCACCCAUGUGAAAACAUGGGAGGAUAUGCAUGGAAAACAUGCUAUGCAGAAGGCUCAUGUG [SS1 - 7] | 0.0626 µM | 0.0838 µM |
| AAGAAACAUGAGGAUCACCCAUGUGAGAAUAACACAGGAUAUGCGAAAAGAAACAAAGAAGCAGAAGGGUGAAGAA [Mat - Same State 1 - Tesla mod - 54] | 0.0403 µM | 0.02 µM |
| AAUCCAAAUAGUUAGGAUAUGGGAAUUAAAACAUGAGGAUCACCCAUGUAAUUGAAACAAGUUAACCAGAAGGGACAGGGUGAAA [JR_SS002_Sub209] | 0.0461 µM | 0.0688 µM |
| AAAAGACAUGAGGAUCACCCAUGUAAAAACUUGAGAGGAUAUGCUUGGAAAACAUGCUAUGCAGAAGGCUCUAGUC [SS1 - 15] | 0.0263 µM | 0.018 µM |
| UGAAGACAUGAGGAUCACCCAUGUGGGAUUAUGGGAGGAUAUACAAAGACGAGAGUCAGAGUAGAAGGCCUAGGAU [salish99-ss1-117(!)] | 0.0579 µM | 0.0314 µM |
| AACAUACAUGAGGAUCACCCAUGUUCCGGCAGGUCAGGAUAUUCAUCGAAAGUGUUAUAAGAAGAAGGGACAUAAA [JR_SS001_Sub011] | 0.0489 µM | 0.034 µM |
| GAAAAACAUGAGGAUCACCCAUGUGUAAAUAUGGGAGGAUAUACAAAGACGAAAGUCAAAGUAGAAGGCCUAAAAG [Mat - Same State 1 - Eli mod - D5] | 0.19 µM | 0.0232 µM |
